Reference: patent publication US7566555B2, “Method of expressing proteins comprising non-naturally-occurring amino acids” (Riken, priority 2002, dated 2009)

What was measured:
[1] = system: CHO cells; test: Effect on growth of CHO cells
Procedure: Next, 3-iodo-L-tyrosine was added to the medium to a final concentration of 0.3 mM (L-tyrosine was present at twice that concentration (FIG. 5B)).

[2] = system: amber mutation in ras(Am); test: Amber suppression of ras(Am) in CHO cells, western blotting with anti-FLAG antibody; assay type: cell-based, Chinese hamster; settings: for suppression efficiency (comparison): Ras and EGFR amber mutants, tetracycline 1 μg/mL
Procedure: Transfection was carried out using 0.5 to 2 μg of DNA for each plasmid per 35 mm plate in accordance with the Lipofect AMINE 2000 (Gibco BRL) method. Opti-MEM 1 (Gibco BRL) was used for the medium. Cell extracts were prepared 24 hours after transfection and applied to SDS-PAGE followed by western blotting using anti-FLAG2 antibody (Sigma) and the ECL+ Immunodetection System (Amersham Pharmacia Biotech). Band intensity was measured using the LAS-1000 plus image analyzer (Fuji Film).
In order to analyze amber suppression, the tyrosine codon at position 32 in a synthetic ras gene truncated from the wild type c-Ha-Ras was mutated to an amber codon. In order to detect expression, a FLAG peptide tag was added to the C-terminals of the ras genes, ras(WT) and its amber mutant ras(Am), and to the C-terminal of E. coli TyrRS.
These ras gene were introduced into CHO cells, and their products were detected by western blotting of cell extracts using anti-FLAG antibody (FIG. 4A).

[3] = system: TyrRS; test: Aminoacylation reaction of TyrRS variants, inorganic phosphate detected with Biomol Green; assay type: biochemical, E. coli; parameters: key: +++: the activity detected with an enzyme concentration of 0.50 μM; ++: the activity detected with an enzyme concentration of 0.25 μM; the activity detected with an enzyme concentration of 0.25 μM, although the activity is lower than that represented by “++”; −: no activity detected with an enzyme concentration of 0.25 μM
Excerpt: More preferably, a mutant TyrRS can be used in which the location corresponding to tyrosine (Y) at position 37 is substituted with valine (V), leucine (L), isoleucine (I) or alanine (A), and the location corresponding to glutamine (Q) at position 195 is substituted with alanine (A), cysteine (C), serine (S) or asparagine (N).

N[C@@H](Cc1ccc(O)c(I)c1)C(=O)O [3-iodo-L-tyrosine, reference compound]
effect on cell reproduction ([1]; 0.3 mM in the medium): hardly any effect on cell reproduction

B1: TetBst2: tet02 sequence 20 bases upstream from the suppressor tRNA gene, SEQ. ID NO. 32 (nucleic acid)
DNA: TCTCCCTATCAGTGATAGAGATCCGCCGACACACGTACACGTCGGAGGGGTAGCGAAGTGGCTAAACGCGGCGGACTCTAAATCCGCTCCCTTTGGGTTCGGCGGTTCGAATCCGTCCCCCTCCAGACAAGTGCGGTTTTTTTCTCCAGCTCCCG
modifications: a sequence of one of the induced expression systems prepared in Example 2 (TetBst2)
suppression efficiency (comparison) [2]: lower than that of TetBst1

B2: TetBst1: tet02 sequence 10 bases upstream from the suppressor tRNA gene, SEQ. ID NO. 31 (nucleic acid)
DNA: TCTCCCTATCAGTGATAGAGATCCGTACACGTCGGAGGGGTAGCGAAGTGGCTAAACGCGGCGGACTCTAAATCCGCTCCCTTTGGGTTCGGCGGTTCGAATCCGTCCCCCTCCAGACAAGTGCGGTTTTTTTCTCCAGCTCCCG
modifications: a sequence of one of the induced expression systems prepared in Example 1 (TetBst1)
suppression efficiency (comparison) [2]: higher suppression efficiency than TetBst0

B3: TetBst0×1: tet02 sequence immediately before the suppressor tRNA gene, SEQ. ID NO. 30, single copy (nucleic acid)
DNA: TCTCCCTATCAGTGATAGAGATCGGAGGGGTAGCGAAGTGGCTAAACGCGGCGGACTCTAAATCCGCTCCCTTTGGGTTCGGCGGTTCGAATCCGTCCCCCTCCAGACAAGTGCGGTTTTTTTCTCCAGCTCCCG
modifications: a sequence of one of the induced expression systems prepared in Example 2 (TetBst0)
notes: ID NO; 30, single copy
suppression when tetracycline is not added ([2]; no tetracycline): nearly complete absence of suppression

B4: Wild Type (Y37, Q195): TyrRS (wild type) of E. coli, SEQ. ID NO. 29 (protein, listed as Escherichia coli)
chain: MASSNLIKQLQERGLVAQVTDEEALAERLAQGPIALYCGFDPTADSLHLGHLVPLLCLKRFQQAGHKPVALVGGATGLIGDPSFKAAERKLNTEETVQEWVDKIRKQVAPFLDFDCGENSAIAANNYDWFGNMNVLTFLRDIGKHFSVNQMINKEAVKQRLNREDQGISFTEFSYNLLQGYDFACLNKQYGVVLQIGGSDQWGNITSGIDLTRRLHQNQVFGLTVPLITKADGTKFGKTEGGAVWLDPKKTSPYKFYQFWINTADADVYRFLKFFTFMSIEEINALEEEDKNSGKAPRAQYVLAEQVTRLVHGEEGLQAAKRITECLFSGSLSALSEADFEQLAQDGVPMVEMEKGADLMQALVDSELQPSRGQARKTIASNAITINGEKQSDPEYFFKEEDRLFGRFTLLRRGKKNYCLICWK
Activity of TyrRS variants with 3-iodo-L-tyrosine ([3]; amino acid: 3-iodo-L-tyrosine): − | Activity of TyrRS variants with Tyrosine ([3]; amino acid: Tyrosine): +++ | effect on growth rate of CHO cells ([1]; expression from a transiently introduced plasmid): hardly affect the growth rate
